Data published in publication PMC2669833.

Target: Alvinella pompejana Cu, Zn superoxide dismutase (Alvinella pompejana)
Test: SAXS

- stoichiometry N: 2
Substance: Alvinella pompejana Cu, Zn superoxide dismutase (enzyme)
